The target in assay [1] is T1, human GPC3 (Glypican-3) (human, UniProt P51654 25-580).
T1 construct: whole, on cells; The cell line of each value is named under assay
Nature of the assay: FACS on HepG2 cells.

In assay [2] the target is T1, human GPC3 (Glypican-3). Nature of the assay: FACS on GPC3-CHO-K1 cells (CHO-K1 overexpressing human GPC3).
The target of assay [3] is T1, human GPC3 (Glypican-3). As to the kind of experiment: FACS on Huh-7 cells.
For assay [4], the target named is T1, human GPC3 (Glypican-3). As to the kind of experiment: cell-based or functional assay.
Assay [5] addresses T1, human GPC3 (Glypican-3). Nature of the assay: cell-based or functional assay. This is another data set of the same source.
For assay [6], the target named is T1, human GPC3 (Glypican-3). As to the kind of experiment: FACS on Huh7 liver cancer cells.
The target in assay [7] is T1, human GPC3 (Glypican-3). Nature of the assay: cell-based or functional assay. The source holds these as a separate data set.

This note sets out measurements from patent publication EP4775226A1, “ANTIBODY DRUG CONJUGATE TARGETING GPC3 AND USE THEREOF” (priority 2023, dated 2025).

Broadly, the EC50 is the midpoint of the concentration-response curve.

T1 sequence (P51654 25-580, form in doubt): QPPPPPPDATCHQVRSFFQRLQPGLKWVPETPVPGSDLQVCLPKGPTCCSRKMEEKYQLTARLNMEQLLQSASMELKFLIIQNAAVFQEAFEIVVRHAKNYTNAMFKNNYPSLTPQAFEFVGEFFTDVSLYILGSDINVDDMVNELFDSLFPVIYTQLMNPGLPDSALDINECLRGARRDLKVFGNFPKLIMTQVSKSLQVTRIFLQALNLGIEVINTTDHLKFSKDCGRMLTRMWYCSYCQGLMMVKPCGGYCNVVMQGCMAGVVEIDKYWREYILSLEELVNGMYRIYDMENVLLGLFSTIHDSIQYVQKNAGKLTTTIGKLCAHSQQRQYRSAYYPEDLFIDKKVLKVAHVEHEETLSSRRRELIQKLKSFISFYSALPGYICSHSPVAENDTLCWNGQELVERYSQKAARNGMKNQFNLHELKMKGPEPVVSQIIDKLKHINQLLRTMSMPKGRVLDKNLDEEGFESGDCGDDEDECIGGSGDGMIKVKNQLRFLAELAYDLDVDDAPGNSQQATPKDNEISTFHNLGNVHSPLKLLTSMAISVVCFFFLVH

B1: GC33 antibody (Chugai Pharmaceutical) (antibody, V domains shown)
VH: QVQLVQSGAEVKKPGASVKVSCKASGYTFTDYEMHWVRQAPGQGLEWMGALDPKTGDTAYSQKFKGRVTLTADKSTSTAYMELSSLTSEDTAVYYCTRFYSYTYWGQGTLVTVSS
VL: DVVMTQSPLSLPVTPGEPASISCRSSQSLVHSNGNTYLHWYLQKPGQSPQLLIYKVSNRFSGVPDRFSGSGSGTDFTLKISRVEAEDVGVYYCSQNTHVPPTFGQGTKLEIK
notes: Control antibody; preparation described in US 7919086 B2; detected with anti-human IgG
In the case of B1, the EC50 in the assay with human GPC3 (Glypican-3) [1] worked out at 0.745 nM; with human GPC3 (Glypican-3) [2], 0.956 nM; with human GPC3 (Glypican-3) [3] it was 0.953 nM.

B2: Hu 52H5D3B8-8 (antibody, human IgG1, kappa, V domains shown)
VH: EVQLVQSGAEVKKPGASVKVSCKASGYTFTDYEMHWVRQAPGQGLEWMGAIHPGSGGTAYNQKFKGRVTMTADKSISTAYMELSRLRSDDTAVYYCTRFYSYAYWGQGTLVTVSS
VL: DVVMTQTPLSLSVTPGQPASISCRSSQSLVHSNGNTYLQWYLQKPGQSPQLLIYKVSNRFSGVPDRFSGSGSGTDFTLKISRVEAEDVGVYFCSQSIHVPYTFGGGTKVEIKR
notes: also called humanized GPC3 antibody Hu 52H5D3B8-8; GPC3 antibody
B2: in the assay with human GPC3 (Glypican-3) [4], the “Percentage reduction of GPC3 on cell surface (%), Huh7 cells, 0.5 h” value (from here on “Percentage reduction … (%), Huh7 cells, 0.5 h”) came out at 18.6%; the “Percentage reduction of GPC3 on cell surface (%), Huh7 cells, 1 h” value (shortened to “Percentage reduction … (%), Huh7 cells, 1 h”) was found to be 37.1%; the “Percentage reduction of GPC3 on cell surface (%), Huh7 cells, 2 h” value (from here on “Percentage reduction … (%), Huh7 cells, 2 h”) is 52.8%. In addition, in the assay with human GPC3 (Glypican-3) [5], the “Endocytosis on HepG2 cells, EC50 (pHAb dye-labelled secondary antibody)” value was 0.78 µg/mL and the “Endocytosis on HepG2 cells, Top” value amounted to 62400. The same molecule showed a concentration for a half-maximal effect (EC50) with human GPC3 (Glypican-3) [1] of 0.351 nM. In addition, the half-maximal effective concentration (EC50) in the assay with human GPC3 (Glypican-3) [6] worked out at 0.0569 µg/mL. In the assay with human GPC3 (Glypican-3) [2], this molecule yielded an EC50 of 0.411 nM. The same molecule displayed an EC50 with human GPC3 (Glypican-3) [3] of 0.418 nM.

B3: Y035 CDRs with Hu 52H5D3B8-7 FRs (antibody, V domains shown)
VH: EVQLVQSGAEVKKPGASVKVSCKASGYTFTDYEMHWVRQAPGQGLEWMGAIHPGSGDTAYNQRFKGRVTMTADKSISTAYMELSRLRSDDTAVYYCTRFYSYAYWGQGTLVTVSS
VL: DVVMTQTPLSLSVTPGQPASISCRSSQSLVHSNGNTYLQWYLQKPGQSPQLLIYKVSNRFSGVPDRFSGSGSGTDFTLKISRVEAEDVGVYYCSQSIYVPYTFGGGTKVEIK
notes: detected with anti-human IgG
With B3, in the assay with human GPC3 (Glypican-3) [5], the “Endocytosis on HepG2 cells, EC50 (pHAb dye-labelled secondary antibody)” value came out at 1.11 µg/mL. Further, the “Endocytosis on HepG2 cells, Top” value with human GPC3 (Glypican-3) [5] was found to be 52200. Further, the EC50 came out at 0.611 nM with human GPC3 (Glypican-3) [1], 0.907 nM with human GPC3 (Glypican-3) [2] and 0.667 nM in the assay with human GPC3 (Glypican-3) [3].

B4: Hu 52H5D3B8-8-mcc-AAQ-Exatecan (ADC-4) (antibody, human IgG1, kappa, DAR 8.0, V domains shown)
VH: EVQLVQSGAEVKKPGASVKVSCKASGYTFTDYEMHWVRQAPGQGLEWMGAIHPGSGGTAYNQKFKGRVTMTADKSISTAYMELSRLRSDDTAVYYCTRFYSYAYWGQGTLVTVSS
VL: DVVMTQTPLSLSVTPGQPASISCRSSQSLVHSNGNTYLQWYLQKPGQSPQLLIYKVSNRFSGVPDRFSGSGSGTDFTLKISRVEAEDVGVYFCSQSIHVPYTFGGGTKVEIKR
modifications: mcc-AAQ-Exatecan on cysteine thiols freed by reduction of interchain disulfide bonds; DAR 8.0 for the whole antibody; positions not given
notes: also called Hu 52H5D3B8-8-MCC-AAQ-Exa (ADC-4)
Turning to B4, the “EC50 value of cell killing activity in Huh7 cells” value (“EC50 value” for short) with human GPC3 (Glypican-3) [7] was determined as 0.0149 µg/mL. In addition, in the assay with human GPC3 (Glypican-3) [4], the “Percentage reduction … (%), Huh7 cells, 0.5 h” value amounted to 18.9%; the “Percentage reduction … (%), Huh7 cells, 1 h” value was determined as 36.2%; the “Percentage reduction … (%), Huh7 cells, 2 h” value came to 50.2%. Also, a half-maximal response with human GPC3 (Glypican-3) [6] (EC50) required 0.0675 µg/mL.

B5: Hu 52H5D3B8-8-mcc-AAN-Exatecan (ADC-2) (antibody, human IgG1, kappa, DAR 8.0, V domains shown)
VH: EVQLVQSGAEVKKPGASVKVSCKASGYTFTDYEMHWVRQAPGQGLEWMGAIHPGSGGTAYNQKFKGRVTMTADKSISTAYMELSRLRSDDTAVYYCTRFYSYAYWGQGTLVTVSS
VL: DVVMTQTPLSLSVTPGQPASISCRSSQSLVHSNGNTYLQWYLQKPGQSPQLLIYKVSNRFSGVPDRFSGSGSGTDFTLKISRVEAEDVGVYFCSQSIHVPYTFGGGTKVEIKR
modifications: mcc-AAN-Exatecan on cysteine thiols freed by reduction of interchain disulfide bonds; DAR 8.0 for the whole antibody; positions not given
notes: also called Hu 52H5D3B8-8-MCC-AAN-Exa (ADC-2)
Turning to B5, in the assay with human GPC3 (Glypican-3) [7], the “EC50 value” value worked out at 0.00939 µg/mL. Also, in the assay with human GPC3 (Glypican-3) [4], the “Percentage reduction … (%), Huh7 cells, 0.5 h” value is 20.5%; the “Percentage reduction … (%), Huh7 cells, 1 h” value is 38.2%; the “Percentage reduction … (%), Huh7 cells, 2 h” value came out at 52.2%. The molecule further came in with an EC50 with human GPC3 (Glypican-3) [6] of 0.061 µg/mL.

B6: Hu 52H5D3B8-8-mc-AAN-Exatecan (ADC-1) (antibody, human IgG1, kappa, DAR 8.0, V domains shown)
VH: EVQLVQSGAEVKKPGASVKVSCKASGYTFTDYEMHWVRQAPGQGLEWMGAIHPGSGGTAYNQKFKGRVTMTADKSISTAYMELSRLRSDDTAVYYCTRFYSYAYWGQGTLVTVSS
VL: DVVMTQTPLSLSVTPGQPASISCRSSQSLVHSNGNTYLQWYLQKPGQSPQLLIYKVSNRFSGVPDRFSGSGSGTDFTLKISRVEAEDVGVYFCSQSIHVPYTFGGGTKVEIKR
modifications: mc-AAN-Exatecan on cysteine thiols freed by reduction of interchain disulfide bonds; DAR 8.0 for the whole antibody; positions not given
notes: also called Hu 52H5D3B8-8-MC-AAN-Exa (ADC-1)
With B6, the “EC50 value” value with human GPC3 (Glypican-3) [7] worked out at 0.00359 µg/mL. Moreover, in the assay with human GPC3 (Glypican-3) [4], the “Percentage reduction … (%), Huh7 cells, 0.5 h” value came out at 17.9%; the “Percentage reduction … (%), Huh7 cells, 1 h” value came to 32.9%; the “Percentage reduction … (%), Huh7 cells, 2 h” value worked out at 52.2%. In the assay with human GPC3 (Glypican-3) [6], this molecule returned a 50% effective concentration (EC50) of 0.0673 µg/mL.
